From the nanobody polyreactivity screen of Harvey et al. (2022)

Test: yeast display, Sf9 membrane polyspecificity reagent, FACS + sequencing; frameworks hold sequencing errors
Method in brief: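 Nanobodies came from a synthetic yeast display library in Saccharomyces cerevisiae BJ5465, induced with galactose for 36–48 hours and stained for 1 hour at 4 °C with 10% biotinylated, detergent-solubilized Sf9 membrane reagent. Cells were enriched on streptavidin microbeads and then FACS-sorted, with low and high (top ~1%) gates set on anti-HA fluorescence for expression and streptavidin fluorescence for reagent binding. Each polyreactivity label reflects the gate a clone came from. Genes were amplified by colony PCR, sequenced by MiSeq 2 × 250 and filtered by CDR length.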

Row | Sequence | polyreactivity (PSR sort gate)
1 | QVQLVESGGGLVQAGGSLRLSCAASGIIFRYYAMGWYRQAPGKERELVAAITSRGGSTYYADSVKGRFTISRDNAKNTVYLQMNSLKPEDTAVYYCATAYYYFSTSRADGEYWGQGTQVTVSS | high polyreactivity
2 | QVQLVESGGGLVQAGGSLRLSCAASGIIFRYYAMGWYRQAPGKERELVAAITWSGGTYYADSVKGRFTISRDNAKKTVYLQMNSLKPEETAVYYCAAVYYGYRDRTDYGYWGQGTQVTVSS | high polyreactivity
3 | QVQLVESGGGLVQAGGSLRLSCAASGIIFRYYAMGWYRQAPGKERELVARITSRGGTYYADSVKGRFTISRDNAKNTVYLQMNSLKPEDTAVYDCAASYLLTHGYAYNYWGQGTQVTVSS | high polyreactivity
4 | QVQLVESGGGLVQAGGSLRLSCAASGIIFRYYAMGWYRQAPGKERELVAVITRSGGSTYADSVKGRFTISRDNAKNTVYLQMNSLKPEDTAVYYCAAQWYLGYATRWRGGYWGQGTQVTVSS | high polyreactivity
5 | QVQLVESGGGLVQAGGSLRLSCAASGIIFSDYAMGWYRQAPGKERELVAAISRNGGSTYYADSVKGRFTISRDNAKNTVYLHMTSLKPEDTAVYYCAATRRYRYNWGQGTQVSVSS | high polyreactivity
6 | QVQLVESGGGLVQAGGSLRLSCAASGIIFSDYGMGWDRQAPGKERELVAAINSGGRTYSADSVKGRFTISRDNAKNTVYLQMNSLKPEDTAVYYCAADTQGSRYDYWGQGTQVTVSS | high polyreactivity
7 | QVQLVESGGGLVQAGGSLRLSCAASGIIFSFYAMGWYRQAPGKERELVADITLSGGRTYYADSVKGRFTISRDNAKNTVYLQMNSLKPEDTAVYYCNDETYERGDYWGQGTKVTVSS | high polyreactivity
8 | QVQLVESGGGLVQAGGSLRLSCAASGIIFSFYTMGWYRQAPGKERELGAAITWSGGSTYYADSVKGRFTISRDNAKNTVYLQMNSLKPEDTAVYYCARSQAVYDGWFAKFGYWGQGTQVTVSS | low polyreactivity
9 | QVQLVESGGGLVQAGGSLRLSCAASGIIFSGYVMGWYGQAPGKERELVAAISRSGGRTFYADSVKGRFTISRDNAMNTVYLQMNSLKPEDTAVYYCAKVPSYVRGHGYQYDHWGQGTQVTVSS | high polyreactivity
10 | QVQLVESGGGLVQAGGSLRLSCAASGIIFSIYAMGWYRQAPGKERELVAAISGRGGRTYYADSVKGRFTISRDNAKNTVYLQMNSLKPVDTAVYYCIAEYLDLYDYWGQGTQVTVSS | low polyreactivity
11 | QVQLVESGGGLVQAGGSLRLSCAASGIIFSPYAMGWYRQAPGKERELVAAISYSGGSTYYADSVKGRFTITRDNAKNTVYLQMNSLKPEDTAVYYCAVVYSYYLAVLGYWDYDYWGQGTQVTVSS | low polyreactivity
12 | QVQLVESGGGLVQAGGSLRLSCAASGIIFSPYAMGWYRQAPGKERELVAAISYSGGSTYYADSVKGRYTISRDNAKNSVYLQMNSLKPEETAVYYCAVFYSYYLAFMGYWDYDYWGQGTQVTVSS | low polyreactivity
13 | QVQLVESGGGLVQAGGSLRLSCAASGIIFSSYAMGWYRQAPGKERELVAAITRGGSTNYADSVKGRFTISRDNAKNTVYLQMNSLKPEDTAVYYCNALWRAYRNYHYIVKNDYWGEGTQVTVSS | high polyreactivity
14 | QVQLVESGGGLVQAGGSLRLSCAASGIIFSSYAMGWYRQAPGKERELVAAITSGGSTNYADSVKGRFTISRDNAKNTVYLQMNSLKPEDTAVYYCATVHAKPYYYWGQGTQVTVSS | low polyreactivity
15 | QVQLVESGGGLVQAGGSLRLSCAASGIIFSVNAMGWYRQAPGKERELVAAISGSGGRTYYADSVKGRFTISRDNAKNTVYLQMNSLKPEDTAVYYCAARRTGKSYYGSRSGFDYWGQGTQVTVSS | high polyreactivity
16 | QVQLVESGGGLVQAGGSLRLSCAASGIIFSVYAMGWYRQAPGKERELVAAISWSGTSTYYADSVKGRFTISRDNAKNTVYLQMNSLKPEDTAVYYCNAKRYRYFGNEYWGQGTQVTVSS | high polyreactivity
17 | QVQLVESGGGLVQAGGSLRLSCAASGIIFSWYAMGWYRQAPGKERELVASITASGGSTYYADSVKGRFTISRDNAKNTVYLQMNSLKPEDTAVYYCAVRYGHRSFASVYVEYEYWGQGTQVTVSS | low polyreactivity
18 | QVQLVESGGGLVQAGGSLRLSCAASGIIFSYNVMGWSREARGKEREFVAAISRSVGSTYYADSVKGRFTISRDNAKNTVYLPMNSLKPEDTAVYYCNARGKRRGKIPYSSYASSYDSWGQGTQVTVSS | high polyreactivity
19 | QVQLVESGGGLVQAGGSLRLSCAASGIIFSYYDMGRYRQAPGKERELVATITGNGGSTYYADSVKGRFTISRDNAKNTVYLQMNSLKPEDTAVYYCAAQTTVYIYDYWGQGTQVTVSS | low polyreactivity
20 | QVQLVESGGGLVQAGGSLRLSCAASGIIFSYYTMGWYRQEPGKEREVVAAISARGGRTYYADSVKGRFTISRDNAKNTVYLQMNSLKPEDTAVYYCAASWSTEYYWGQGTQVTVSS | high polyreactivity

Row | Sequence | polyreactivity (PSR sort gate)
21 | QVQLVESGGGLVQAGGSLRLSCAASGIIFTDNAMGWYRQAPGKERELVATISWSTDNTYYADSVKGRFTISRDNAKNTVYLQMNSLKPEDTAVYYCAAEEYYAYWYQYDYWGQATQVTVSS | low polyreactivity
22 | QVQLVESGGGLVQAGGSLRLSCAASGIIFTDYAMGWYRQAPGIERELVAAISGSGGSTYYADSVKGRFTISRDNAKNTVYLQMNSLKPEDTAVYYCAAATHIFLQVYYAYGYWGQGTQVTVSS | high polyreactivity
23 | QVQLVESGGGLVQAGGSLRLSCAASGIIFTFYAMGWYRQAPGKERELVAAISYSSGSTYADSVKGRFTISRDNAKNTVYLQMNSLKPDDTAVYYCAVDLFPGHSYTYDYWGQGTQVTVSS | low polyreactivity
24 | QVQLVESGGGLVQAGGSLRLSCAASGIIFTGNAMGWYIQAPGKERELVAAITSGDTTNYADSVKGRFTISRDNAKNTVYLQMNSLKPEDTAVYYCAKELQVRQAGDYWGQGTQVTVSS | low polyreactivity
25 | QVQLVESGGGLVQAGGSLRLSCAASGIIFTGNAMGWYRQAPGKERELVAAITSGDTTNYADSVKGRFTISRDNAKNTVYLQMNSLKPEDTAVYFCAIELQVRQAGDYWGQGTQVTVSS | low polyreactivity
26 | QVQLVESGGGLVQAGGSLRLSCAASGIIFTQYAMGLYRQAPGKERELVAAISGSGGRTYYADSVKGRFTISRDIAKNTVYLQMNSLKPEDTAVYYCAARYARYGNDYWGQGTQVTVSS | high polyreactivity
27 | QVQLVESGGGLVQAGGSLRLSCAASGIIFTRNAMGWYRPAPGKERELVAASSRSGGSTYYADSVKGRFTISRDNAKNTVYLQMNSLKPEDTAVYDGAAAWSEYPYDYWGQGTQVTVSS | low polyreactivity
28 | QVQLVESGGGLVQAGGSLRLSCAASGIIFTRYAMGWYRQAPGKERELVAAITRNGVSTYYADSVKGRFTISRDNAKNSVYLQMNSLKPEDTAVYYCNTYVLRRYAYGYWGQGTQVTVSS | high polyreactivity
29 | QVQLVESGGGLVQAGGSLRLSCAASGIIFTRYVMGWYRQAPGKERELVATIRIGGSTTYADSVKGRFTISRDNAKNTVYLQMNSLKPEDTAVYYCAADTWYITTYGGAGSYAYGFYYWGQGTQVTVSS | low polyreactivity
30 | QVQLVESGGGLVQAGGSLRLSCAASGIIFTSNTMGWYRPAPGKEREFVASINWNGSSTYADSVKGRFTISRDNAKNTVYLQMYSLKPDDTAVYYCNADSNRNSVQFSLYDYWGQGTQVTVSS | low polyreactivity
31 | QVQLVESGGGLVQAGGSLRLSCAASGIIFTSYAMGWYRQAPGKERELVAVITGTGGITYYADSVKGRFTISRDNAKNTVYLQMNSLKPEDTAVYYCAAELELREYDYWGQGTQVTVSS | high polyreactivity
32 | QVQLVESGGGLVQAGGSLRLSCAASGIIFTTNAMGWYRQAPGKERELVATITSGGGTYYADSVKGRFTISRDNAKNTVYLQMNSLKPVDTAVYYCAATPGWGPWIFDHSYVDFDYWGQGTQVTVSS | low polyreactivity
33 | QVQLVESGGGLVQAGGSLRLSCAASGIIFTWYAMGWYRQAPGKERELVAAITSGNTYYADSVKGRFTISRDNAKNTVYLQMNSLKPEDTAVYYCNAVYSYTDEYDYWGQGTQVTVSS | high polyreactivity
34 | QVQLVESGGGLVQAGGSLRLSCAASGIIFTYNAMGWSRQAPGKERELVAAISWRGGSTYYADSVKGRFTISRDNAKNTVYLQMNSLKPEDTAVYYCARYGTDHRLGYGYWGQGTQVTVSS | low polyreactivity
35 | QVQLVESGGGLVQAGGSLRLSCAASGIIFTYNTMGWYRQAPGKERELVAAINYSGGSTYYADSVKGRFTISRDNAKNTVYLQMNSLKPEDTAVYYCAAPYRRKARGFQQSFDYWGQVTQVTVSS | high polyreactivity
36 | QVQLVESGGGLVQAGGSLRLSCAASGIIFTYYAMGSYRQAPGKERELVAAISSRGDSTYYADSVKGRCTISRDNAKNTVSLQLNSLKTEDTAVYYCNRYLSRPLRAMYYWGIGTQVTVSS | high polyreactivity
37 | QVQLVESGGGLVQAGGSLRLSCAASGIIFTYYAMGWYRQAPGKERELVAAISYRGGSTNYADSVKGRFTISRDNAKNTVYLQMNSLKPEDTAVYYCAAKSYWKRFRVLYDYWGQGTQVTVSS | high polyreactivity
38 | QVQLVESGGGLVQAGGSLRLSCAASGIIFTYYAMGWYRQAPGKERELVAAITSSAGSTYYADSVKGRFTISRDNAKNTVYLQMNSLKPVDTAVYYCAAYSVYYYQGDDYWGQGTQVTVSS | high polyreactivity
39 | QVQLVESGGGLVQAGGSLRLSCAASGIIFTYYAMGWYRQAPGKERELVADIDWSGDGTYYADSVKGRFTISRDNAKNTVYLQMNSLKPEDTAVYYCAAEGTETYYVFYDQPEITLYDYWGQGTQVTVSS | low polyreactivity
40 | QVQLVESGGGLVQAGGSLRLSCAASGIIFVAYARGWYRQAPGKERELVAAITWGGGRTYYADSVKGRFTISRDNAKNTVYLQMNSLKPEDTAVYYCAAVVWYDPRATYVYWGQGTQVTVSS | low polyreactivity
